This note sets out measurements from doi:10.1101/856021 (2019).

In this assay the target is Jil-1 peptide 984-1004 F989A (Drosophila, UniProt Q9V3I5 984-994, F989A). In words: ITC.

B1: dP75 IBD-containing C-terminus region (residues 209-445) (domain or fragment)
chain: AAVTPIQKRSRPVNNIRNEMLMVYMPTAKCLGIVINYKKPESFESAAAEEAWMENARKEALELKLKLESGQINPESMPDRIVVEPTRSEIPKQEALRFIEELIEHEDALFMERDFIQLSQQLRECLGLRRANVGKCLEILEQFKEVEFTKLMLLRNPECVDIMRRLRRYVGNLELWKMDLSDEVEFKERAQTIRKVSSGIYDGFKSLFNPEPESEDNFWIDFCEKVKIYKTYTKNIN
What is called Kd is a measure of binding affinity in units of concentration. Higher therefore signals lower affinity. Consider B1, for which the Kd is 122 µM.
